Key:
[1] = target: T1, N-terminal His-tagged SisHjm (Hjm/Hel308a helicase from Sulfolobus islandicus) (Sulfolobus islandicus, UniProt F0NDL2 1-715); experiment: SEC
T1 sequence (looked up): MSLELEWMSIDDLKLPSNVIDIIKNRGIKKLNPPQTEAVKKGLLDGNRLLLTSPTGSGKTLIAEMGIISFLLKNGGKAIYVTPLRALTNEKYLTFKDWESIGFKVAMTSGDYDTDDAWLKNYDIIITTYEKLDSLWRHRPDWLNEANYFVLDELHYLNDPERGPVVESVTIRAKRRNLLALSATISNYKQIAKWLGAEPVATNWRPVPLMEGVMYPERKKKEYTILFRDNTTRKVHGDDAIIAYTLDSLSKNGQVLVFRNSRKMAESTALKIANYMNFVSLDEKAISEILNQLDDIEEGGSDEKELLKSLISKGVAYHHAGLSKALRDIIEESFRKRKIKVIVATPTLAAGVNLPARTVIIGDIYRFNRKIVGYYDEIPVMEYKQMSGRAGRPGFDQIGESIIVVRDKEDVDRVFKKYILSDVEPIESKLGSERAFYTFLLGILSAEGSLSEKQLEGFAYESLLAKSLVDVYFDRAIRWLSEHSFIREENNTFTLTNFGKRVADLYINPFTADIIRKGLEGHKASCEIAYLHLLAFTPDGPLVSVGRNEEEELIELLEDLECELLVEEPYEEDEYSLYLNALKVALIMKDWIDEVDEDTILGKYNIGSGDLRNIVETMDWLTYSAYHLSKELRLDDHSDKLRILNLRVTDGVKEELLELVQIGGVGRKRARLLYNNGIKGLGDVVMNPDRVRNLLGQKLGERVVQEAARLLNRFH

[2] = target: the molecule itself; experiment: SEC

B1: SisPINA (PIN domain-containing ATPase from Sulfolobus islandicus), recombinant, without tag (enzyme, UniProt F0NID4 1-505, looked up)
chain: MNDLMLDKSALLFGVSKYLEKGIITGNVLIHKSLLAELERESNDGLVSAEIALDEVKKLKDITERILVNFEIVGDDSKKGEANELSREYCLEKGCIIVTADETQKKICDAMGIQYNFLQPLKQGLSFESFFDDETMSLHIKEDTVPRAKKGKPGNWKFVNLSDKPMLSTDVRMIANEIINAVRLIKGSFVEIERRGSLIIQLGNYRVVITRPPLSDGWEITITRPVVRKRLEDYNLDERLIKRLEERAEGIIIAGAPGMGKTTFAQALAEYYMRLGKIVKTIESPRDMHLPPEITQYSKNYAEIGELHDILLLSRPDYTVYDEMRNDEDFKLYVDLRLAGVGMVGVVHATSPIDAIHRFVNRVDIGTIPNILDTIIFINSGNVSKVYTLEMTVKVPAGLKEADLARPVVEIKDLATGNTEYEIYVFGEQTMIVPVNRGITMSNMEFKISKIVNNIIPNATVKYEDGEYVIVIPKEEIGKYNRKLVQRLKRLEKKNNIKIKIKLSD
stoichiometry N [1]: ~1 Hjm monomer per PINA hexamer | stoichiometry N [2]: 6
